Laboratory results published in publication PMC9171633 (Proceedings of the National Academy of Sciences of the …, 2022).

Target: KRas WT G domain (UniProt P01116-1 1-166)
Test: pull-down

binding result: binds
B1: GST-RBD (domain or fragment)
chain: GLTSKESLFVRINAAHGFSLIQVDNTKVTMKEILLKAVKRRKGSQKVSGPQYRLEKQSEPNVAVDLDSTLESQSAWEFCLVRENSSRAD
